# Measured values reported in patent publication EP4711453A1, “PHENYLALANINE LYASE MUTANT, AND CONJUGATE THEREOF OR PHARMACEUTICALLY ACCEPTABLE SALT THEREOF” (Peg-Bio Biopharm Co., Ltd. (Chongqing), priority 2023, dated 2024).
# B1: PL24: polyethylene glycol conjugate of phenylalanine lyase mutant SEQ ID NO: 6, polyethylene glycol molecular weight 2K, average degree of modification 13.3 (conjugate)
# chain: MKTLSQAQSKTSSQQFSFTGNSSANVIIGNQKLTINDVARVARNGTLVSLTNNTDILQGIQASCDYINNAVKSGEPIYGVTSGFGGMANVAISREQASELQTNLVWFLKTGAGNKLPLADVRAAMLLRANSHMRGASGIRLELIKRMEIFLNAGVTPYVYEFGSIGASGDLVPLSYITGSLIGLDPSFKVDFNGKEMDAPTALRQLNLSPLTLLPKEGLAMMNGTSVMTGIAANCVYDTKILTAIAMGVHALDIQALNGTNQSFHPFIHNSKPHPGQLWAADQMISLLANSQLVRDELDGKHDYRDHELIQDRYSLRCLPQYLGPIVDGISQIAKQIEIEINSVTDNPLIDVDNQASYHGGNFLGQYVGMGMDHLRYYIGLLAKHLDVQIALLASPEFSNGLPPSLLGNRERKVNMGLKGLQICGNSIMPLLTFYGNSIADRFPTHAEQFNQNINSQGYTSATLARKSVDIFQNYVAIALMFGVQAVDLRTYKKTGHYDARASLSPATERLYSAVRHVVGQKPTSDRPYIWNDNEQGLDEHIAKISADIAAGGVIVQAVQDILPSLH
# modifications: PEG 2K conjugate, ~13.3 PEG per molecule
# Legend:
# anti-PEG-IgG = tested on: anti-PEG-IgG; design: species or system rats; settings: rat, in vivo; for anti-PEG-IgG, Positive rate: sc, 0.75 mg/kg
# Experimental: (§1) Polyethylene glycol conjugates of phenylalanine lyase or its mutant with different structures and modifier molecular weights, namely PL20, PL24, and PL54, were prepared according to the method described in Example 2. The phenylalanine lyase in PL20 has the amino acid sequence as set forth in SEQ ID NO: 1, and the polyethylene glycol has a molecular weight of 20K. The phenylalanine lyase in PL24 has the amino acid sequence as set forth in SEQ ID NO: 6, and the polyethylene glycol has a molecular weight of 2K. The phenylalanine lyase in PL54 has the amino acid sequence as set forth in SEQ ID NO: 6, and the polyethylene glycol has a molecular weight of 5K.
# (§2) To evaluate the immunogenicity of PL20, PL24, and PL54 in animals, normal rats were selected and divided into 3 groups, with 6 rats per group (3 males and 3 females). Subcutaneous administration was performed at a dose of 0.75 mg/kg with PL54 (average degree of modification 13.6, 1.27 U/mg), PL24 (average degree of modification 13.3, 0.96 U/mg), and PL20 (average degree of modification 7.6, 1.14 U/mg) for the three groups, respectively. Administration was repeated 7 times, once weekly. Blood samples were collected 7 days after each administration. Serum anti-PEG-IgG and anti-PAL4 protein antibodies were detected by ELISA (refer to Example 5 for details). In the table, "1-7" indicated 7 days after the first administration, and "7-7" indicated 7 days after the seventh administration. x represented the average OD value of antibody detection by ELISA, and the positive rate represented the ratio of the number of antibody-positive animals to the total number of animals in the group. Table 6: Antibody titers in rats after multiple administrations of polyethylene glycol conjugates with different molecular weights
# [1] = Specific enzyme activity of phenylalanine lyase (trans-cinnamic acid formation, absorbance at 290 nm); type: biochemical; settings: polyethylene glycol conjugates; method as for the proteins
# Experimental: Phenylalanine lyase specifically catalyzes the conversion of phenylalanine into trans-cinnamic acid with the release of ammonia. […] Enzyme activity is defined as the amount of enzyme required to produce 1 µmol of trans-cinnamic acid per minute in buffer (100 mmol/L Tris-HCl, pH 8.5) at room temperature (25°C) as one unit of enzyme activity.
# The specific enzyme activity of phenylalanine lyase and its mutants (i.e., PAL, PAL2, PAL3, and PAL4 proteins) prepared in Example 1 was evaluated by taking an appropriate amount of test sample and diluting it to 0.4 mg/ml using assay buffer (100 mmol/L Tris-HCl, pH 8.0). 2.9 ml of substrate solution (100 mmol/L Tris-HCl, 45 mmol/L Phe, pH 8.0) was placed in a cuvette, followed by addition of 0.1 ml of diluted test solution and immediate mixing. The changes in absorbance per minute were recorded at a wavelength of 290 nm, and the specific enzyme activity was calculated according to the formula. Enzyme activity (U/mg) = (AS−AO)VN × 10^6 /εLTV1 [formula]
# Where AS and AO represent the absorbance of trans-cinnamic acid at the […] of the reaction, respectively; V is the total volume (L) of the reaction system; L is the optical path length of the cuvette (cm); ε is the molar extinction coefficient of trans-cinnamic acid (10238.1 L/(mol·cm)); T is the reaction time (min); N is the dilution factor of the test sample; V1 is the volume of test sample (ml).
# The enzyme activity retention rate was calculated by comparing the specific enzyme activity of phenylalanine lyase mutants with the specific enzyme activity of the phenylalanine lyase. Table 2: Specific enzyme activity of phenylalanine lyase mutants
# The specific enzyme activity of the polyethylene glycol conjugates of phenylalanine lyase and its mutants prepared in Step 1 of Example 2 was determined according to the method described in Step 1 of this example. The enzyme activity retention rate was calculated by comparing the specific enzyme activity of each conjugate with its specific enzyme activity prior to PEG modification (e.g., the enzyme activity retention rate of PL5-1 = specific enzyme activity of PL5-1 / specific enzyme activity of PAL protein). Table 3: Specific enzyme activity of PEGylated phenylalanine lyase mutants
# anti-PAL-IgG = experiment: Immunogenicity of conjugates with different PEG molecular weights in rats: anti-PAL-IgG (ELISA); type: in vivo; settings: 0.75 mg/kg s.c. once weekly
# Experimental: as §1, §2
# [2] = 1-7 (7 days after the first administration)
# [3] = 1-7, antibody-positive animals / animals in the group
# [4] = 7-7 (7 days after the seventh administration)
# [5] = 7-7, antibody-positive animals / animals in the group
Molecule,"anti-PEG-IgG antibody titer, comparison between groups (anti-PEG-IgG)","anti-PEG-IgG, Positive rate (anti-PEG-IgG)",Specific enzyme activity [1] [U/mg],"anti-PAL-IgG, x (average OD value of antibody detection by ELISA) (anti-PAL-IgG; [2])","anti-PAL-IgG, Positive rate (anti-PAL-IgG; [3])","anti-PAL-IgG, x (average OD value of antibody detection by ELISA) (anti-PAL-IgG; [4])","anti-PAL-IgG, Positive rate (anti-PAL-IgG; [5])"
"PL20: polyethylene glycol conjugate of phenylalanine lyase SEQ ID NO: 1, polyethylene glycol molecular weight 20K, average degree of modification 7.6 [reference compound]",higher than that in the PL24 and PL54 groups,Positive rate: 6/6,1.14,x=0.118,Positive rate: 1/6,x=0.102,Positive rate: 1/6
B1,–,Positive rate: 6/6,0.96,x=0.130,Positive rate: 4/6,x=0.891,Positive rate: 6/6
